Numbering of substitutions follows the chain as printed. Values belong to the binder of their own block, whether it stands above or below them.
Key:
Smc3^QQ K1004C = molecular target: T1, Smc3^QQ K1004C (S. cerevisiae, UniProt P47037 1-1230, K112Q | K113Q | K1004C); assay: cross-linking; in vivo BMOE cross-link of cysteine pairs in yeast cells arrested in late G1 by non-degradable Sic1(9m); Scc1-PK immunoprecipitated, western blot, band intensities quantified; details: partners not purified
T1 construct: Smc3, S. cerevisiae; source: S. cerevisiae W303, late G1 arrested cells, whole-cell extract
T1 sequence (looked up): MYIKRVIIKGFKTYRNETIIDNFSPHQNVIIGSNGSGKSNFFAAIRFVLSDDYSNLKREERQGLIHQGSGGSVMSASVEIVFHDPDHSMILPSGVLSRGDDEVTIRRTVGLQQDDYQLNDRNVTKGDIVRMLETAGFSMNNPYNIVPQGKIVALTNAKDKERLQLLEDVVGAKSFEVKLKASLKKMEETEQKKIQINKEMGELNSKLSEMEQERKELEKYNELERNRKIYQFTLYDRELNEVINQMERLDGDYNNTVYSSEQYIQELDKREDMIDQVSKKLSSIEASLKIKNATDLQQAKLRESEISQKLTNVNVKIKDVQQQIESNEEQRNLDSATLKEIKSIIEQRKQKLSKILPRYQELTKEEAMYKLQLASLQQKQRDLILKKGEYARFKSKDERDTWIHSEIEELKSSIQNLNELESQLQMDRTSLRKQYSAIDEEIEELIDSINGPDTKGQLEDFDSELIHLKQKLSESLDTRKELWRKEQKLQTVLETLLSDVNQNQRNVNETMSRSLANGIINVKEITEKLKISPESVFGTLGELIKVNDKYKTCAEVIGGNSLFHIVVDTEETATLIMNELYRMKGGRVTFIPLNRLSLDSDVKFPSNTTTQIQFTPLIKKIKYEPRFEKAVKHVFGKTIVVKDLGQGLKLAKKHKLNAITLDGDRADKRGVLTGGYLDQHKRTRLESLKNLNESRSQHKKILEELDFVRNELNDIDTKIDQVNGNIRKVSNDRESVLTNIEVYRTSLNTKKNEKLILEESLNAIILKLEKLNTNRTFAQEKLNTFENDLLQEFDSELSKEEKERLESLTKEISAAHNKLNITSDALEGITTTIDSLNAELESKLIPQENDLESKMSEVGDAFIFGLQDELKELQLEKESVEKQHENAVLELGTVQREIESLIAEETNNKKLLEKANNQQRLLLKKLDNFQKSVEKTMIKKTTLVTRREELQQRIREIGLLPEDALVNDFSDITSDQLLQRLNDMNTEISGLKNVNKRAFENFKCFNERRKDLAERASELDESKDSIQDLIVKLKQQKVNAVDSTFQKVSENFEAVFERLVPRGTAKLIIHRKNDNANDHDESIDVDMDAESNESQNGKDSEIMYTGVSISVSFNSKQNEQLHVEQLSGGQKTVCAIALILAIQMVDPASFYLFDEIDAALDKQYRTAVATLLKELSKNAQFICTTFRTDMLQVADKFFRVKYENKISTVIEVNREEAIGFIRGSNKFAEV

[1] = molecular target: T2, Smc3^QQ W483R R1008I Q67C (S. cerevisiae, UniProt P47037 1-1230, Q67C | K112Q | K113Q | W483R | R1008I); assay: as above; details: partners not purified
T2 construct: Smc3, S. cerevisiae; also called smc3-QQ Q67C with R1008I and W483R; source: S. cerevisiae W303, late G1 arrested cells, whole-cell extract
T2 sequence (looked up): T1 sequence (looked up) with Q67C, W483R, C1004K, R1008I

crosslinking efficiency relative to wild type (Smc3^QQ K1004C): ~10%
B1: Scc2 D369C (natural protein, S. cerevisiae, UniProt Q04002 1-1493, looked up)
chain: MSYPGKDKNIPGRIIEALEDLPLSYLVPKDGLAALVNAPMRVSLPFDKTIFTSADDGRDVNINVLGTANSTTSSIKNEAEKERLVFKRPSNFTSSANSVDYVPTNFLEGLSPLAQSVLSTHKGLNDSINIEKKSEIVSRPEAKHKLESVTSNAGNLSFNDNSSNKKTKTSTGVTMTQANLAEQYLNDLKNILDIVGFDQNSAEIGNIEYWLQLPNKKFVLTTNCLTKLQMTIKNITDNPQLSNSIEITWLLRLLDVMVCNIKFSKSSLKMGLDDSMLRYIALLSTIVLFNIFLLGKNDSNLHRESYIMEPVNFLSDLIESLKILTIEYGSLKIEFDTFQEALELLPKYIRNGPFLDDNVTAKLVYIFSCLLMNNDIEATTNIQFQSFWDNVKRISSDILVSLFGSFDQQRGFIIEELLSHIEKLPTKRIQKKLRKVGNQNIYITDFTFTLMSMLENINCYSFCNQMKDIAPENIDLLKNEYKKQEEFLFNIVEHINDTILERFFKNPSALRYVIDNFVQDLLLLISSPQWPVTEKILSSLLKRLLSVYSPSMQVSANIETICLQLIGNIGSTIFDIKCSTRDHEDNNLIKMINYPETLPHFFKSFEECIAYNETIKCRRSATRFLWNLRLGTILILEEYTKDAKEQIITVDNELKKILEQIKDGGLGPELENREADFSTIKLDYFSILHAFELLNLYDPYLKLILSLLAKDKIKLRSTAIKCLSMLASKDKVILSNPMVKETIHRRLNDSSASVKDAILDLVSINSSYFEFYQQINNNYNDDSIMVRKHVLRINEKMYDETNDIVTKVYVIARILMKIEDEEDNIIDMARLILLNRWILKVHEVLDQPEKLKEISSSVLLVMSRVAIMNEKCSQLFDLFLNFYLLNKEAHSKEAYDKITHVLTILTDFLVQKIVELNSDDTNEKNSIVDKQNFLNLLAKFADSTVSFLTKDHITALYPYMVSDEKSDFHYYILQVFRCTFEKLANFKQKFLYDLETTLLSRLPKMNVREIDEAMPLIWSVATHRHDTARVAKACSSCLSHLHPYINKANNEEAAIVVDGKLQRLIYLSTGFARFCFPKPSNDKIAFLQEGETLYEHITKCLLVLSKDKITHVIRRVAVKNLTKLCGNHPKLFNSRHVLHLLDKEFQSDQLDIKLVILESLYDLFLLEERKSVRNTGVNSTLSSNSILKKKLLKTNRVEFANDGVCSALATRFLDNILQLCLLRDLKNSLVAIRLLKLILKFGYTNPSHSIPTVIALFASTSQYIRHVAYELLEDLFEKYETLVFSSLSRGVTKAIHYSIHTDEKYYYKHDHFLSLLEKLCGTGKKNGPKFFKVLKRIMQSYLDDITDLTSTNSSVQKSIFVLCTNISNITFVSQYDLVSLLKTIDLTTDRLKEVIMDEIGDNVSSLSVSEEKLSGIILIQLSLQDLGTYLLHLYGLRDDVLLLDIVEESELKNKQLPAKKPDISKFSAQLENIEQYSSNGKLLTYFRKHVKDT
notes: Scc2, S. cerevisiae; source: S. cerevisiae W303, in vivo, whole-cell extract

crosslinking efficiency relative to wild type [1]: ~70%
B2: Scc2 T1175C (natural protein, S. cerevisiae, UniProt Q04002 1-1493, looked up)
chain: B1 chain with C369D, T1175C
notes: as for B1
